According to patent US7282483 (Amgen, dated 2007):

Biological target: T1, TNF-β (lymphotoxin) (UniProt P01374 35-205, limits assumed)
T1 sequence (looked up): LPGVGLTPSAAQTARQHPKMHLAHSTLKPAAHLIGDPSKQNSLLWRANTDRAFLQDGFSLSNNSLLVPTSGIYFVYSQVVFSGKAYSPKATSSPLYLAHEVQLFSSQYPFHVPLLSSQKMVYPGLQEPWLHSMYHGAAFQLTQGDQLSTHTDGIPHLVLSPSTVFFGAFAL
Experiment: preliminary tests, analogous to the competition binding test

B1: TNF-binding protein (TNF-BP), natural, purified from dialyzed urine of uraemia patients (receptor)
chain: DSVCPQGKYIHPQNNSICCTKCHKGTYLYNDCPGPGQDTDCRECESGSFTASENHLRHCLSCSKCRKEMGQVEISSCTVDRDTVCGCRKNQYRHYWSENLFQCFNCSLCLNGTVHLSCQEKQNTVCTCHAGFFLRENECVSCSNCKKSLECTKLCLPQIEN
modifications: glycoprotein; Asn-25 glycosylated (numbering of the TNF-BP cDNA sequence, Leu-1 = first residue after the signal peptide)
notes: Main form (about 80 %) starts at Asp-12; In the preliminary tests it was used as concentrated dialyzed urine or partly purified preparations
  affinity for TNF-β relative to its affinity for TNF-α: ~0.02 ratio (affinity for TNF-β / affinity for TNF-α)
